Drawing on US20240181050A1 (COMPASS THERAPEUTICS, published 2024), this text covers binding result and Kd for four molecules.

The target in experiment [1] is T1, human CD137 point mutant K114R, soluble protein (human, UniProt Q07011 24-186).
T1 construct: Printed as 'All 4 mutations tested at K114 (R, E, N, T)'; It was isolated from the extracellular-domain library and expressed as a soluble protein
In words: soluble point mutant tested for binding to mAb1; method not named.

Experiment [2] addresses T2, human CD137 point mutant K114N, soluble protein (human, UniProt Q07011 24-186).
T2 construct: Printed as 'All 4 mutations tested at K114 (R, E, N, T)'; It was expressed as a soluble protein
The description is as above.

For experiment [3], the target named is T3, human CD137 point mutant K114T, soluble protein (human, UniProt Q07011 24-186).
T3 construct: Printed as 'All 4 mutations tested at K114 (R, E, N, T)'; It was expressed as a soluble protein
Described as above.

Experiment [4] deals with T4, human CD137 point mutant K114E, soluble protein (human, UniProt Q07011 24-186).
T4 construct: Printed as 'All 4 mutations tested at K114 (R, E, N, T)'; It was expressed as a soluble protein
The description is as above.

In experiment [5] the target is T5, Fc-, mouse IgG2a-, or His-tagged human CD137 (human, UniProt Q07011 24-186).
T5 construct: Antigens came from ACRO Biosystems, Sino Biological and internal sources; not shown: Fc, mouse IgG2a or His tag
In words: BLI Octet HTX; tagged CD137 on biosensor, Fab 0-500 nM in solution; global 1:1 fit, apparent KD. As to the method: (§1) The anti-CD137 antibodies were further tested for their binding to CD137 from multiple species. Specifically, mAb1, mAb8 and mAb10 were analyzed for binding to human, mouse, cynomolgus and canine CD137. Kinetic experiments were performed on Octet HTX (ForteBio) in kinetics buffer (1×PBS, pH 7.4, 0.1 mg/ml BSA, and 0.002% Tween 20). Fc-, mouse IgG2a-, or His-tagged CD137 (human, mouse, cyno or canine) were loaded for 5 minutes on pre-hydrated biosensors, AHC, AMC or NTA respectively. The sensors were then dipped into Fabs (0, 5.12, 12.8, 32, 80, 200 and 500 nM) for 5 minutes of association, following by 15 minutes of dissociation. Results were analyzed with ForteBio Data Analysis 9.0 and fit globally to a 1:1 binding model to determine the apparent KD. KD for human and mouse CD137 binding were confirmed by using antigens from different sources (ACRO Biosystems, Sino Biological and internal).
(In general: BLI is a label-free optical method that tracks binding on a fibre tip over time.)

In experiment [6] the target is T6, Fc-, mouse IgG2a-, or His-tagged cynomolgus CD137 (cynomolgus, UniProt A9YYE7 24-186).
T6 construct: also called cyno CD137; not shown: Fc, mouse IgG2a or His tag
T6 sequence: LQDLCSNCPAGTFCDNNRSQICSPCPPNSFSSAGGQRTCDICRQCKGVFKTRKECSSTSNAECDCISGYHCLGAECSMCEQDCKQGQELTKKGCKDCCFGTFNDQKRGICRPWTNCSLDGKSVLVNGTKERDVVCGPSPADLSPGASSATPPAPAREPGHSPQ
Described as above. As to the method:
as §1

For experiment [7], the target named is T7, Fc-, mouse IgG2a-, or His-tagged mouse CD137 (mouse, UniProt P20334 24-187).
T7 construct: Antigens came from ACRO Biosystems, Sino Biological and internal sources; not shown: Fc, mouse IgG2a or His tag
T7 sequence (looked up): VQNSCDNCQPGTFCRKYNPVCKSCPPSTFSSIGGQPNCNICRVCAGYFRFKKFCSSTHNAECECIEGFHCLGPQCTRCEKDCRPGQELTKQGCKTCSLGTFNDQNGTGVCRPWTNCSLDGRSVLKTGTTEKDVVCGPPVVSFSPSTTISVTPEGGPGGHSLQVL
The experiment is described as above. As to the method:
as §1

T2 sequence (Q07011 24-186 K114N limits assumed): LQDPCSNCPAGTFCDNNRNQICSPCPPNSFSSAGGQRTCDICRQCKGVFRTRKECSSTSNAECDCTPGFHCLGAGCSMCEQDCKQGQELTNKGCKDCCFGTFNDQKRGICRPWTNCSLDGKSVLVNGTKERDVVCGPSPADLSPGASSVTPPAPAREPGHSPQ
T1 sequence (Q07011 24-186 K114R limits assumed): as the sequence (Q07011 24-186 K114N limits assumed) above, with N91R counted along it
T4 sequence (Q07011 24-186 K114E limits assumed): as the sequence (Q07011 24-186 K114N limits assumed) above, with N91E counted along it
T3 sequence (Q07011 24-186 K114T limits assumed): as the sequence (Q07011 24-186 K114N limits assumed) above, with N91T counted along it

B1: anti-CD137 mAb1 (antibody, human IgG4 S228P, kappa, V domains shown)
VH: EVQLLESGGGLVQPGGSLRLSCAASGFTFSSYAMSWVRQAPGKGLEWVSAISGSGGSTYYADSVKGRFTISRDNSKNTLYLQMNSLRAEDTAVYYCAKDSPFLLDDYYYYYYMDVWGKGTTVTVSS
VL: DIQMTQSPSSVSASVGDRVTITCRASQGISSWLAWYQQKPGKAPKLLIYAASSLQSGVPSRFSGSGSGTDFTLTISSLQPEDFATYYCQQGHLFPITFGGGTKVEIKR
notes: also called parental mAb1
Regarding B1, the binding result in experiment [1], in experiment [2], in experiment [3] and in experiment [4] was “no binding” each time.

B2: mAb1 Fab (Fab, V domains shown)
VH: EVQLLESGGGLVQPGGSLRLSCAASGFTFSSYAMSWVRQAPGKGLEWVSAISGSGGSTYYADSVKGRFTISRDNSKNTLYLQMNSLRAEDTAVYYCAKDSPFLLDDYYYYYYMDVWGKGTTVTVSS
VL: DIQMTQSPSSVSASVGDRVTITCRASQGISSWLAWYQQKPGKAPKLLIYAASSLQSGVPSRFSGSGSGTDFTLTISSLQPEDFATYYCQQGHLFPITFGGGTKVEIK
B2: the Kd in experiment [5] was 0.05 to 0.07 µM; in experiment [6], 0.03 to 0.1 µM; in experiment [7], 0.3 to 0.5 µM.

B3: mAb10 Fab (Fab, V domains shown)
VH: EVQLLESGGGLVQPGGSLRLSCAASGFTFYGYAMSWVRQAPGKGLEWVAAISGSGDSTYYADSVKGRFTISRDNSKNTLYLQMNSLRAEDTAVYYCAKDSPFLLDDYYYYYYMDVWGKGTTVTVSS
VL: DIQMTQSPSSVSASVGDRVTITCRASQGISSWLAWYQQKPGKAPKLLIYAASSLQSGVPSRFSGSGSGTDFTLTISSLQPEDFATYYCQQGHLFPITFGGGTKVEIK
In the case of B3, the Kd in experiment [5] was 0.0009 µM; in experiment [6] it was 0.0018 µM; in experiment [7] it was 0.01 to 0.03 µM.

B4: mAb8 Fab (Fab, V domains shown)
VH: EVQLLESGGGLVQPGGSLRLSCAASGFTFRNYAMSWVRQAPGKGLEWVSAISGSGDTTYYADSVKGRFTISRDNSKNTLYLQMNSLRAEDTAVYYCAKDSPFLLDDYYYYYYMDVWGKGTTVTVSS
VL: DIQMTQSPSSVSASVGDRVTITCRASQGISSWLAWYQQKPGKAPKLLIYAASSLQSGVPSRFSGSGSGTDFTLTISSLQPEDFATYYCQQGHLFPITFGGGTKVEIK
Turning to B4, the figures for the Kd in experiment [5], in experiment [6] and in experiment [7] were 0.003 to 0.005 µM, 0.003 to 0.007 µM and 0.05 to 0.09 µM, respectively.
